Data taken from article PMC10515946.

Legend:
[1] = biological target: BG505 SOSIP (soluble Env trimer of HIV-1 BG505) (HIV-1 strain BG505); test: cryo-EM structure
[2] = biological target: 1059 SOSIP (TPA-1059 SOSIP, soluble Env trimer of the transmitted/founder HIV-1 strain 1059), purifi (HIV-1 strain 1059); test: cryo-EM structure

Substance	stoichiometry N [1]	stoichiometry N [2]
BG505 SOSIP (soluble Env trimer of HIV-1 BG505) (complex)	3	
1059 SOSIP (TPA-1059 SOSIP, soluble Env trimer of the transmitted/founder HIV-1 strain 1059), purifi (complex)		3
